Test results reported in US10919943B2, “Mutant proteins enabling agrochemical control of plant gene expression” (The Regents of the University of California, priority 2016, dated 2021).
Substitutions are numbered along the chain they refer to. Names may count otherwise.

B1: F61E: PYR1 mutant (protein, UniProt O49686 1-191, looked up, variant F61E)
Abscisic acid receptor PYR1: MPSELTPEERSELKNSIAEFHTYQLDPGSCSSLHAQRIHAPPELVWSIVRRFDKPQTYKHEIKSCSVEQNFEMRVGCTRDVIVISGLPANTSTERLDILDDERRVTGFSIIGGEHRLTNYKSVTTVHRFEKENRIWTVVLESYVVDMPEGNSEDDTRMFADTVVKLNLQKLATVAEAMARNSGDGSGSQVT
B2: S85H: PYR1 mutant (protein, UniProt O49686 1-191, looked up, variant S85H)
Abscisic acid receptor PYR1: B1 Abscisic acid receptor PYR1 with E61F, S85H
B3: S85E: PYR1 mutant (protein, UniProt O49686 1-191, looked up, variant S85E)
Abscisic acid receptor PYR1: B1 Abscisic acid receptor PYR1 with E61F, S85E
B4: K63P: PYR1 mutant (protein, UniProt O49686 1-191, looked up, variant K63P)
Abscisic acid receptor PYR1: B1 Abscisic acid receptor PYR1 with E61F, K63P
B5: F61G: PYR1 mutant (protein, UniProt O49686 1-191, looked up, variant F61G)
Abscisic acid receptor PYR1: B1 Abscisic acid receptor PYR1 with E61G
B6: I62R: PYR1 mutant (protein, UniProt O49686 1-191, looked up, variant I62R)
Abscisic acid receptor PYR1: B1 Abscisic acid receptor PYR1 with E61F, I62R
B7: S85K: PYR1 mutant (protein, UniProt O49686 1-191, looked up, variant S85K)
Abscisic acid receptor PYR1: B1 Abscisic acid receptor PYR1 with E61F, S85K
B8: S85M: PYR1 mutant (protein, UniProt O49686 1-191, looked up, variant S85M)
Abscisic acid receptor PYR1: B1 Abscisic acid receptor PYR1 with E61F, S85M
B9: S85F: PYR1 mutant (protein, UniProt O49686 1-191, looked up, variant S85F)
Abscisic acid receptor PYR1: B1 Abscisic acid receptor PYR1 with E61F, S85F
B10: I62E: PYR1 mutant (protein, UniProt O49686 1-191, looked up, variant I62E)
Abscisic acid receptor PYR1: B1 Abscisic acid receptor PYR1 with E61F, I62E
B11: I62G: PYR1 mutant (protein, UniProt O49686 1-191, looked up, variant I62G)
Abscisic acid receptor PYR1: B1 Abscisic acid receptor PYR1 with E61F, I62G
B12: F61I: PYR1 mutant (protein, UniProt O49686 1-191, looked up, variant F61I)
Abscisic acid receptor PYR1: B1 Abscisic acid receptor PYR1 with E61I
B13: S85C: PYR1 mutant (protein, UniProt O49686 1-191, looked up, variant S85C)
Abscisic acid receptor PYR1: B1 Abscisic acid receptor PYR1 with E61F, S85C
B14: I62W: PYR1 mutant (protein, UniProt O49686 1-191, looked up, variant I62W)
Abscisic acid receptor PYR1: B1 Abscisic acid receptor PYR1 with E61F, I62W
B15: I84L: PYR1 mutant (protein, UniProt O49686 1-191, looked up, variant I84L)
Abscisic acid receptor PYR1: B1 Abscisic acid receptor PYR1 with E61F, I84L
B16: F61H: PYR1 mutant (protein, UniProt O49686 1-191, looked up, variant F61H)
Abscisic acid receptor PYR1: B1 Abscisic acid receptor PYR1 with E61H
B17: F61K: PYR1 mutant (protein, listed as Arabidopsis thaliana)
chain: B1 Abscisic acid receptor PYR1 with E61K
B18: S85N: PYR1 mutant (protein, UniProt O49686 1-191, looked up, variant S85N)
Abscisic acid receptor PYR1: B1 Abscisic acid receptor PYR1 with E61F, S85N
B19: S85R: PYR1 mutant (protein, UniProt O49686 1-191, looked up, variant S85R)
Abscisic acid receptor PYR1: B1 Abscisic acid receptor PYR1 with E61F, S85R
B20: S85V: PYR1 mutant (protein, UniProt O49686 1-191, looked up, variant S85V)
Abscisic acid receptor PYR1: B1 Abscisic acid receptor PYR1 with E61F, S85V
B21: I62Y: PYR1 mutant (protein, UniProt O49686 1-191, looked up, variant I62Y)
Abscisic acid receptor PYR1: B1 Abscisic acid receptor PYR1 with E61F, I62Y
B22: S85I: PYR1 mutant (protein, UniProt O49686 1-191, looked up, variant S85I)
Abscisic acid receptor PYR1: B1 Abscisic acid receptor PYR1 with E61F, S85I
B23: S85W: PYR1 mutant (protein, UniProt O49686 1-191, looked up, variant S85W)
Abscisic acid receptor PYR1: B1 Abscisic acid receptor PYR1 with E61F, S85W
B24: I62D: PYR1 mutant (protein, UniProt O49686 1-191, looked up, variant I62D)
Abscisic acid receptor PYR1: B1 Abscisic acid receptor PYR1 with E61F, I62D
B25: I62K: PYR1 mutant (protein, UniProt O49686 1-191, looked up, variant I62K)
Abscisic acid receptor PYR1: B1 Abscisic acid receptor PYR1 with E61F, I62K
B26: S85A: PYR1 mutant (protein, UniProt O49686 1-191, looked up, variant S85A)
Abscisic acid receptor PYR1: B1 Abscisic acid receptor PYR1 with E61F, S85A
B27: S85Y: PYR1 mutant (protein, UniProt O49686 1-191, looked up, variant S85Y)
Abscisic acid receptor PYR1: B1 Abscisic acid receptor PYR1 with E61F, S85Y
B28: S85D: PYR1 mutant (protein, UniProt O49686 1-191, looked up, variant S85D)
Abscisic acid receptor PYR1: B1 Abscisic acid receptor PYR1 with E61F, S85D
B29: S85Q: PYR1 mutant (protein, UniProt O49686 1-191, looked up, variant S85Q)
Abscisic acid receptor PYR1: B1 Abscisic acid receptor PYR1 with E61F, S85Q
B30: S85P: PYR1 mutant (protein, listed as Arabidopsis thaliana)
chain: B1 Abscisic acid receptor PYR1 with E61F, S85P
B31: S85G: PYR1 mutant (protein, UniProt O49686 1-191, looked up, variant S85G)
Abscisic acid receptor PYR1: B1 Abscisic acid receptor PYR1 with E61F, S85G
B32: S85L: PYR1 mutant (protein, UniProt O49686 1-191, looked up, variant S85L)
Abscisic acid receptor PYR1: B1 Abscisic acid receptor PYR1 with E61F, S85L

System: HAB1
Experiment: Yeast two hybrid of pBD-PYR1 site saturation mutants with pACT-HAB1 on 10 μM ABA, β-galactosidase staining
Type: cell-based, Arabidopsis
Parameters: key: x: Mutations in PYR1 that disrupt ABA-induced binding to PYR1 to HAB1
Details: S. cerevisiae Y190, 10 μM ABA; dead = lack of visible staining in comparison to wild type control
How it was run: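 S. cerevisiae Y190 co-expressing GAL4-DNA-binding-domain–PYR1 mutants and GAL4-activation-domain–HAB1 were spotted on SD (-Leu, -Trp) agar with 10 μM (+)-ABA for 2 days at 30° C. Colonies were chloroform-lysed and stained for β-galactosidase. Mutants lacking visible staining relative to wild type were scored as non-binding.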

Molecule | Mutations in PYR1 that disrupt ABA-induced binding to PYR1 to HAB1
B1 | x
B2 | x
B3 | x
B4 | x
B5 | x
B6 | x
B7 | x
B8 | x
B9 | x
B10 | x
B11 | x
B12 | x
B13 | x
B14 | x
B15 | x
B16 | x

Molecule | Mutations in PYR1 that disrupt ABA-induced binding to PYR1 to HAB1
B17 | x
B18 | x
B19 | x
B20 | x
B21 | x
B22 | x
B23 | x
B24 | x
B25 | x
B26 | x
B27 | x
B28 | x
B29 | x
B30 | x
B31 | x
B32 | x
